The labels stand for the following.
B1: Azoarcus group I ribozyme (parent)
chain: GUGCCUUGCGCCGGGAAACCACGCAAGGGAUGGUGUCAAAUUCGGCGAAACCUAAGCGCCCGCCCGGGCGUAUGGCAACGCCGAGCCAAGCUUCGGCGCCUGCGCCGAUGAAGGUGUAGAGACUAGACGGCACCCACCUAAGGCAAACGCUAUGGUGAAGGCAUAGUCCAGGGAGUGGCGAAAGUCACACAAACCGG

The variants in this data set derive from B1. Nature of the data set: reverse-splicing fitness (ratio to wild type); higher = more active; in vitro selection; Mg2+ level not given. The method in brief: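 An in vitro group I ribozyme library with randomized positions was T7-transcribed and gel-purified. In triplicate, 10 pmol RNA in EPPS pH 7.5 was reacted with 50 pmoles of a 30-nt RNA substrate for 1 h at 37 °C across several added MgCl2 levels (1–48 mM), then stopped with EDTA. Products were reverse transcribed from a substrate-complementary primer, PCR-amplified and sequenced (HiSeq 4000). Fitness is a variant's read proportion after selection over that before, normalised to wild type.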
Take C82G A111U A120G A145U C169U U176C: the reverse-splicing fitness amounted to 0.0158.
To C82G A111U A120G A145U C169U U176A belongs 0.0185.
Turning to C82G A111U A120G A145U C169U U176G, the reverse-splicing fitness came to 0.00419.
Turning to C82G A111U A120U A145G C150G C169U U176C, the reverse-splicing fitness stood at 0.00721.
C82G A111U A120U A145G C150G C169U U176A: the reverse-splicing fitness came out at 0.0076.
Next, C82G A111U A120U A145G C150G C169U U176G: 0.00391.
For the variant C82G A111U A120G A145U C150G C169A U176A, the reverse-splicing fitness is 0.0104.
With C82G A111U A120G A145U C150G C169A U176C, the reverse-splicing fitness stood at 0.0114.
Regarding C82G A111U A120G A145U C150G C169A U176G, the reverse-splicing fitness turned out to be 0.00513.
With C82G A111U A120G A145G C150U C169G U176G, the reverse-splicing fitness is 0.00526.
Turning to C82G A111U A120G A145G C150U C169G U176A, the reverse-splicing fitness came out at 0.0137.
For the variant C82G A111U A120G A145G C150U C169G U176C, the reverse-splicing fitness came out at 0.0192.
With C82G A111U A120U A145U C150U C169G U176A, the reverse-splicing fitness came to 0.00344.
In the case of C82G A111U A120U A145U C150U C169G U176C, the reverse-splicing fitness worked out at 0.00287.
As to C82G A111U A120U A145U C150U C169G U176G, the reverse-splicing fitness is 0.00218.
On to C82G A111U A120G C150A C169U U176G, for which the reverse-splicing fitness was found to be 0.00759.
As to C82G A111U A120G C150A C169U U176A, the reverse-splicing fitness turned out to be 0.0244.
Next, C82G A111U A120G C150A C169U U176C: 0.0215; C82G A111U A120G A145U C150A: 0.00819; C82G A111U A120G A145U C150U: 0.0139.
C82G A111U A120G A145U C150G: the reverse-splicing fitness was found to be 0.00715.
To C82G A111U A120U A145G C150A U176A belongs 0.00769; to C82G A111U A120U A145G C150A U176C, 0.00757.
Consider C82G A111U A120U A145G C150A U176G, for which the reverse-splicing fitness came to 0.00383.
Take C82G A111U A120G C150U U176A: the reverse-splicing fitness was determined as 0.0111.
Regarding C82G A111U A120G C150U U176C, the reverse-splicing fitness was 0.0178.
As for C82G A111U A120G C150U U176G, the reverse-splicing fitness is 0.011.
Next, C82G A111U A120G A145G C150U U176A: 0.00946; C82G A111U A120G A145G C150U U176C: 0.0167.
On to C82G A111U A120G A145G C150U U176G, for which the reverse-splicing fitness is 0.00777.
C82G A111U A120U A145G C169G U176C: the reverse-splicing fitness stood at 0.00515.
In the case of C82G A111U A120U A145G C169G U176G, the reverse-splicing fitness stood at 0.00172.
To C82G A111U A120U A145G C169G U176A belongs 0.00533; to C82G A111U A120U A145G C169A, 0.00459; to C82G A111U A120U A145G C169U, 0.00483.
On to C82G A111U A120U A145G C169G, for which the reverse-splicing fitness is 0.00479.
For the variant C82G A111U A120U A145G C150A C169G U176C, the reverse-splicing fitness was determined as 0.00577.
For C82G A111U A120U A145G C150A C169G U176A, the reverse-splicing fitness amounted to 0.00878.
As for C82G A111U A120U A145G C150A C169G U176G, the reverse-splicing fitness was found to be 0.00257.
On to C82G A111U A120G A145G C150U C169U U176C, for which the reverse-splicing fitness turned out to be 0.0151.
Next, C82G A111U A120G A145G C150U C169U U176A: 0.0169; C82G A111U A120G A145G C150U C169U U176G: 0.00561.
C82G A111U A120G C150G C169U: the reverse-splicing fitness amounted to 0.00861.
Regarding C82G A111U A120G C150G C169G, the reverse-splicing fitness worked out at 0.00797.
In the case of C82G A111U A120G C150G C169A, the reverse-splicing fitness was found to be 0.00883.
For C82G A111U A120G C150G, the reverse-splicing fitness is 0.00634.
Regarding C82G A111U A120G C150U, the reverse-splicing fitness came out at 0.0127.
On to C82G A111U A120G C150A, for which the reverse-splicing fitness is 0.00998.
Regarding C82G A111U A120U A145U C150A U176A, the reverse-splicing fitness worked out at 0.00457.
For the variant C82G A111U A120U A145U C150A U176C, the reverse-splicing fitness was determined as 0.00518.
In the case of C82G A111U A120U A145U C150A U176G, the reverse-splicing fitness came to 0.00291.
As to C82G A111U A120U A145U C150A C169G U176G, the reverse-splicing fitness stood at 0.00186.
For the variant C82G A111U A120U A145U C150A C169G U176C, the reverse-splicing fitness stood at 0.003.
On to C82G A111U A120U A145U C150A C169G U176A, for which the reverse-splicing fitness worked out at 0.00335.
With C82G A111U A120G C150G C169A U176G, the reverse-splicing fitness turned out to be 0.00726.
In the case of C82G A111U A120G C150G C169A U176C, the reverse-splicing fitness worked out at 0.0111.
Take C82G A111U A120G C150G C169A U176A: the reverse-splicing fitness turned out to be 0.0115.
To C82G A111U A120U A145G C150A belongs 0.0109; to C82G A111U A120U A145G C150G, 0.00902.
For the variant C82G A111U A120U A145G C150U, the reverse-splicing fitness came to 0.0351.
Turning to C82G A111U A120U A145U C150U C169A, the reverse-splicing fitness was determined as 0.00323.
In the case of C82G A111U A120U A145U C150U C169U, the reverse-splicing fitness stood at 0.00381.
In the case of C82G A111U A120U A145U C150U C169G, the reverse-splicing fitness is 0.00327.
As for C82G A111U A120U A145U C150G C169A U176A, the reverse-splicing fitness is 0.00343.
To C82G A111U A120U A145U C150G C169A U176C belongs 0.00246; to C82G A111U A120U A145U C150G C169A U176G, 0.00233; to C82G A111U A120U A145C C150A C169U U176C, 0.00247.
For the variant C82G A111U A120U A145C C150A C169U U176G, the reverse-splicing fitness amounted to 0.00177.
With C82G A111U A120U A145C C150A C169U U176A, the reverse-splicing fitness turned out to be 0.00306.
Turning to C82G A111U A120G A145G C169U U176A, the reverse-splicing fitness was found to be 0.0198.
For the variant C82G A111U A120G A145G C169U U176G, the reverse-splicing fitness stood at 0.00501.
As to C82G A111U A120G A145G C169U U176C, the reverse-splicing fitness was found to be 0.0161.
As to C82G A111U A120G A145G C169G U176G, the reverse-splicing fitness is 0.00429.
With C82G A111U A120G A145G C169G U176C, the reverse-splicing fitness was 0.0235.
Regarding C82G A111U A120G A145G C169G U176A, the reverse-splicing fitness was determined as 0.0166.
As for C82G A111U A120G A145U C150U C169U U176C, the reverse-splicing fitness came to 0.0167.
As for C82G A111U A120G A145U C150U C169U U176A, the reverse-splicing fitness turned out to be 0.0188.
As to C82G A111U A120G A145U C150U C169U U176G, the reverse-splicing fitness is 0.00486.
With C82G A111U A120G C150U C169A U176C, the reverse-splicing fitness turned out to be 0.0182.
For the variant C82G A111U A120G C150U C169A U176A, the reverse-splicing fitness worked out at 0.0173.
To C82G A111U A120G C150U C169A U176G belongs 0.00614.
As for C82G A111U A120U A145C C169A U176A, the reverse-splicing fitness is 0.00191.
Take C82G A111U A120U A145C C169A U176G: the reverse-splicing fitness amounted to 0.00205.
Next, C82G A111U A120U A145C C169A U176C: 0.00232.

These data come from the RNAGym collection of RNA variant scans (doi:10.1093/molbev/msab373).
